Each block holds one substance with its values, some of them ahead of it.
How the values were obtained:
human IL-13 (human) [1] = molecular target: human IL-13 (human) (UniProt P35225); test: Biacore SPR; human IgG1 immobilized, 100 ng/ml human IL-13 injected
murine IL-13 (murine) = murine IL-13 (murine) (UniProt P20109); test: cell-based or functional assay
human IL-13 (human) [2] = molecular target: human IL-13 (human) (UniProt P35225); test: Biacore SPR; IL-11R-Ig immobilized, 100 ng/ml human IL-13 injected

Chain of UniProt P35225 (P35225 35-146 limits assumed): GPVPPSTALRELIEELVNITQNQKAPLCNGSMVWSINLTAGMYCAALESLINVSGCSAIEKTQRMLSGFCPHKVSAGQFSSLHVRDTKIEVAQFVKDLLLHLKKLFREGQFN
Chain of UniProt P20109 (P20109 21-131 limits assumed): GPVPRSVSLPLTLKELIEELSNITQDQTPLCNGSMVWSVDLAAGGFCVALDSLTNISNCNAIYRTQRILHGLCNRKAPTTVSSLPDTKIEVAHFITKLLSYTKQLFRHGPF

RU bound (human IL-13 (human) [1]): 5.4 RU
Substance: human IgG1 (IgG control) (antibody)

in vitro ID50 in the B9 proliferation assay (murine IL-13 (murine)): 10 ng/mL
Substance: soluble IL-13 receptor α2-Fc fusion protein (sIL-13Rα2-Fc) (from UniProt O88786 22-331)

RU bound (human IL-13 (human) [2]): 3.7 RU
Substance: IL-11R-Ig (Fc fusion)

Source: US20050096268A1
